Experimental data taken from patent US6974798B2, “Treatment of balance impairments” (Genentech, Inc., priority 1995, dated 2005).
“Also recorded” adds a separate entry of the source.

Experiments:
[1] = cited from earlier work
[2] = test system: vestibular ganglion neurons (VGNs); test: Protection of cultured VGNs from cisplatin neurotoxicity; format: cell-based, rat; conditions: for protective effect against cisplatin neurotoxicity: 1, 2 or 4 μg/ml cisplatin, 10 ng/ml factor, 2 days
Description: (§1) The effects of trkB or trkC agonists to enhance neuronal survival was determined using VGNs in cell culture. VGN cell culture was prepared as follows. Vestibular ganglia were dissected from postnatal day 5 (P5) Wistar rats and were incubated in a mixture of 0.125% trypsin and 0.125% collagenase for 25 min at 37° C. The enzyme was inactivated with a mixture of 0.005% soybean trypsin inhibitor (Sigma) and 0.005% DNase (Worthington) before trituration with 0.05% DNase in Eagle's Basal Medium (“BME”). After the undissociated tissues were separated by filtering with a Nylon meshwork (33 μm in pore size), the dissociated cells were preplated on a 35 mm untreated tissue culture dish for 25 min to enrich the neuronal population. Under these experimental procedures, about 3-5% of the cell population were vestibular ganglion neurons (VGNs) as determined by immunocytochemistry with a monoclonal antibody (N52; Boehringer) against neurofilament (200 kd). The cell suspension was finally plated on polylysine (500 μg/ml)laminin (20 μg/ml) coated 16-well LabTek slides in 200 μl of serum-free medium (BME plus serum-free supplement (Sigma I-1884), 1% BSA, 2 mM glutamine, and 5 mg/ml glucose) containing no antibiotics. Cells were plated at a density of 100,000/well.
(§2) Cell counts and data analysis were performed as follows. After 2 days in culture, viable VGNs were identified by labeling with the neurofilament monoclonal antibody N52 and counted using a grid ocular reticule covering an area of 1 mm^2 under a Zeiss Axiophot microscope. For each culture, about 10 randomly selected fields were counted. In these experiments, cell counts were performed in the same way for control cultures. Data were collected from triplet cultures for each of the experimental groups. Data were then normalized as a percentage of the viable VGNs in the control cultures in each of the experiments.
(§3) The ability of trkB or trkC agonists to protect neurons from ototoxicity was determined using VGNs in cell culture. […] All human recombinant neurotrophins (Genentech, Inc.) were added to the cultures at the time of plating. To block the effects of the neurotrophins, 1 μg/ml of trkB-IgG or trkC-IgG (kindly provided by Dr. Dave Shelton), specific antagonists for NT-4/5 (and BDNF) or NT-3, respectively (Shelton et al., 1995), was added to some of the experimental cultures at the same time when neurotrophins were added. […] In other experiments, epidermal growth factor (EGF), basic fibroblast growth factor (βFGF) and insulin-like growth factor-1 (IGF-1) were added to the culture at the time of plating at a concentration of 10 ng/ml. […] In these experiments, cell counts were performed in the same way for control cultures.

[3] = test system: vestibular ganglion neurons (VGNs); test: Protection of cultured VGNs against gentamicin neurotoxicity; format: cell-based, rat; conditions: FIG. 5; for protective effect against gentamicin neurotoxicity: 1, 2 or 3 mg/ml gentamicin, 10 ng/ml factor, 2 days
Description: as §1, §2, §3

[4] = test system: vestibular ganglion neurons (VGNs); test: VGN survival in dissociated cell culture, serum-free medium, 2 days; format: cell-based, rat; conditions: for survival-promoting effect on VGNs: 10 ng/ml added at plating
Description: as §1
All human recombinant neurotrophins (obtained from Genentech, Inc.) were added to the cultures at the time of plating.
as §2
The effect of neurotrophins on cell survival was determined on VGNs which were dissociated from postnatal day 5 (P5) rat vestibular ganglia and plated in defined serum-free medium. Neurofilament protein immunocytochemistry using bright field microscopy was performed in the VGN cultures in serum-free medium in the absence or presence of 10 ng/ml of NT-4/5. In control cultures in serum-free medium without neurotrophins, about 35% of VGNs survived after 2 days. […] The survival-promoting effects of NT-4/5 on cultured VGNs were dose-dependent (FIG. 1).

trkC receptor = trkC receptor (Homo sapiens, UniProt Q16288); conditions: cited from earlier work; for trkC binding of NT-3 mutants: relative to NT-3
trkC receptor, sequence (Q16288 32-839): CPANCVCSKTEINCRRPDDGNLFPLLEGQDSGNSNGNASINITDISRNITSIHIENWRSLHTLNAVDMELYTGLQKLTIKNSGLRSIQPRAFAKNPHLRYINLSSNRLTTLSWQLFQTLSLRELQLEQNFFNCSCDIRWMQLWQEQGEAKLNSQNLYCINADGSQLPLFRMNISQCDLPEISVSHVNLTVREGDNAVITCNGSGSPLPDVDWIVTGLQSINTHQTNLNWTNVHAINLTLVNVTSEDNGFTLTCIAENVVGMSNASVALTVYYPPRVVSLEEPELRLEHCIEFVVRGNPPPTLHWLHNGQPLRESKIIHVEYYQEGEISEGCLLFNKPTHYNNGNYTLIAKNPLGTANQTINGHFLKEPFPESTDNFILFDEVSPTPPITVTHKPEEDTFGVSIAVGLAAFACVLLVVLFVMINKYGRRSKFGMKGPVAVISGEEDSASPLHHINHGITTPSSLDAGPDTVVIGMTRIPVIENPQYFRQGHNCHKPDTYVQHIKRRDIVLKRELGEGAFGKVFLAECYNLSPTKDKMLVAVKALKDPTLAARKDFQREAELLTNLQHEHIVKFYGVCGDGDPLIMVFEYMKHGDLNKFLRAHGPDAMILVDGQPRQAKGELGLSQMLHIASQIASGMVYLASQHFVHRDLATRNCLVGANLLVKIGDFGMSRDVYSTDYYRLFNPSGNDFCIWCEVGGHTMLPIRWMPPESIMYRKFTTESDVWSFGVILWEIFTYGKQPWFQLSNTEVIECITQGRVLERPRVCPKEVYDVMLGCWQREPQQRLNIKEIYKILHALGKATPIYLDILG

trkB receptor = trkB receptor (Homo sapiens, UniProt Q16620); conditions: naturally occurring NGF versus BDNF; cited from earlier work
trkB receptor, sequence (Q16620 32-822): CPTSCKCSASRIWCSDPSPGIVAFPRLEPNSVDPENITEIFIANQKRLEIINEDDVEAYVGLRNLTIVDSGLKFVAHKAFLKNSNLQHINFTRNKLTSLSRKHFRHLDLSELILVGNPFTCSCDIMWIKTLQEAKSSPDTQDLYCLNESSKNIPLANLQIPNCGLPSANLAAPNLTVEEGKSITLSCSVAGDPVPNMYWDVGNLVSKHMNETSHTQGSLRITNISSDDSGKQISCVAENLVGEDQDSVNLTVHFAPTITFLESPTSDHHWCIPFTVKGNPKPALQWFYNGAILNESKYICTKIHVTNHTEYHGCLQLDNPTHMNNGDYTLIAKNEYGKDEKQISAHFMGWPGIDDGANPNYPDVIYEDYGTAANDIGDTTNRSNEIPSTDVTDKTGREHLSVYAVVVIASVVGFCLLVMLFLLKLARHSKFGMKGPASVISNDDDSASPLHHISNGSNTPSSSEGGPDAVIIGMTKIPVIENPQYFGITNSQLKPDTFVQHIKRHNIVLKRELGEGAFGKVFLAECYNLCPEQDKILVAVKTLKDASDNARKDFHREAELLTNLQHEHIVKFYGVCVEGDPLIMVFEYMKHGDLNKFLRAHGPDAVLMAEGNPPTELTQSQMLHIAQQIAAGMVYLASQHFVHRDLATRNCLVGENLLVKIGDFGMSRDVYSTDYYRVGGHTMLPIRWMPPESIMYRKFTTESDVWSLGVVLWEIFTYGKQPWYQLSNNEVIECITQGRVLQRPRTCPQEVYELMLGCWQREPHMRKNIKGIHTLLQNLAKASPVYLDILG

[5] = test system: vestibular ganglion neurons (VGNs); test: Ototoxin-induced cell death of VGNs in culture; format: cell-based, rat
Description: The ability of trkB or trkC agonists to protect neurons from ototoxicity was determined using VGNs in cell culture. […] All human recombinant neurotrophins (Genentech, Inc.) were added to the cultures at the time of plating. […]

hair cells = conditions: Warchol et al., 1993, Lefebvre et al.; cited from earlier work
[6] = culture containing cisplatin, FIG. 4

[H]/N=C(/N)N[C@H]1[C@H](O)[C@@H](O)[C@H](O[C@@H]2O[C@@H](C)[C@](O)(C=O)[C@H]2O[C@@H]2O[C@@H](CO)[C@H](O)[C@@H](O)[C@@H]2NC)[C@@H](N/C(N)=N\[H])[C@@H]1O [streptomycin]
incidence of vestibular impairment ([1]; 1 gram per day): 25% | patients displaying some vestibular impairment ([1]; 2 grams daily for 60 to 120 days): ~75%

NGF: human recombinant nerve growth factor, ligand of trkA
protective effect against cisplatin neurotoxicity ([2]; FIG. 4): no protective effects | protective effect against gentamicin neurotoxicity [3]: showed no effect | survival-promoting effect on VGNs ([4]; 2 days, FIG. 2): did not show any detectable effect; also recorded: did not produce significant effects | KD at trkC relative to NT-3 (fold lower) (trkC receptor; naturally occurring NGF versus NT-3): 500-1000 fold | KD at trkB relative to BDNF (fold lower) (trkB receptor): 500-1000 fold

R31A: NT-3 mutant with mutation at position R31 to alanine
trkC binding of NT-3 mutants (trkC receptor): increased trkC binding

gentamicin
VGN death ([5]; 3 mgiml of gentamicin): a majority of VGNs died | inhibition of VGN survival by the ototoxin ([5]; added at plating at various concentrations, FIGS. 4 and 5): dose-dependent inhibition of VGN survival | concentrations at which induced VGN cell death was observed ([5]; present experiments): 1000 to 3000 µg/mL | concentrations needed to destroy hair cells (hair cells): 500 to 1000 µg/mL

B1: E92A: NT-3 mutant with mutation at position E92 to alanine (protein, UniProt P20783 139-257, looked up, variant E92A)
Neurotrophin-3: YAEHKSHRGEYSVCDSESLWVTDKSSAIDIRGHQVTVLGEIKTGNSPVKQYFYETRCKEARPVKNGCRGIDDKHWNSQCKTSQTYVRALTSANNKLVGWRWIRIDTSCVCALSRKIGRT
trkC binding of NT-3 mutants (trkC receptor): increased trkC binding

B2: NT-3: human recombinant neurotrophin-3, ligand of trkC (protein)
chain: YAEHKSHRGEYSVCDSESLWVTDKSSAIDIRGHQVTVLGEIKTGNSPVKQYFYETRCKEARPVKNGCRGIDDKHWNSQCKTSQTYVRALTSENNKLVGWRWIRIDTSCVSALSRKIGRT
protective effect against cisplatin neurotoxicity ([2]; FIG. 4): Significant protective, but less potent effects; also recorded: very significant protecting effects at all three doses | protective effect against gentamicin neurotoxicity [3]: significantly protective effect; also recorded: very significant protective effects at all three doses of gentamicin | survival-promoting effect on VGNs ([4]; 2 days, FIG. 2): significant effect (p<0.01) but was less potent than NT-4/5 and BDNF; also recorded: very significant survival promoting effects

B3: BDNF: human recombinant brain-derived neurotrophic factor, ligand of trkB (protein)
chain: HSDPARRGELSVCDSISEWVTAADKKTAVDMSGGTVTVLEKVPVSKGQLKQYFYETKCNPMGYTKEGCRGIDKRHWNSQCRTTQSYVRALTMDSKKRIGWRFIRIDTSCVTLTIKRGR
protective effect against cisplatin neurotoxicity ([2]; FIG. 4): equivalent effectiveness; also recorded: very significant protecting effects at all three doses | protective effect against gentamicin neurotoxicity [3]: an effect equivalent to NT-4/5; also recorded: very significant protective effects at all three doses of gentamicin | survival-promoting effect on VGNs ([4]; 2 days, FIG. 2): equivalent to NT-4/5; also recorded: very significant survival promoting effects | increase in the number of surviving VGNs ([4]; P5 rat VGNs, 2 days in serum-free medium, versus control culture without neurotrophin): 2 fold

B4: NT-4/5: human recombinant neurotrophin-4/5 (Genentech, Inc.), ligand of trkB (protein)
chain: GVSETAPASRRGELAVCDAVSGWVTDRRTAVDLRGREVEVLGEVPAAGGSPLRQYFFETRCKADNAEEGGPGAGGGGCRGVDRRHWVSECKAKQSYVRALTAHAQGRVGWRWIRIDTACVCTLLSRTGRA
number of surviving VGNs relative to cisplatin alone and to control ([2]; 1 μg/ml or 2 μg/ml cisplatin, 10 ng/ml neurotrophin): higher than the control culture without cisplatin | VGN survival ([2]; 4 μg/ml cisplatin, 10 ng/ml neurotrophin, FIG. 4): about 60 % of the survival levels of control cultures in the absence of cisplatin | protective effect against cisplatin neurotoxicity ([2]; FIG. 4): significantly ameliorated the toxic effects of cisplatin; also recorded: very significant protecting effects at all three doses | additive effect, NT-4/5 combined with BDNF, cisplatin culture [2, 6]: no additive effects were observed | additive effect, NT-4/5 combined with NT-3, cisplatin culture [2, 6]: no additive effects were observed | protective effect against gentamicin neurotoxicity [3]: very significant protective effects at all three doses of gentamicin | additive effect, NT-4/5 combined with BDNF, gentamicin culture ([3]; culture containing gentamicin): no additive effects were observed | additive effect, NT-4/5 combined with NT-3, gentamicin culture ([3]; culture containing gentamicin): no additive effects were observed | survival-promoting effect on VGNs ([4]; 2 days, FIG. 2): very significant survival promoting effects | additive/synergistic effect on VGN survival, NT-4/5 combined with BDNF ([4]; 10 ng/ml, FIG. 2): no synergistic effects were observed | additive/synergistic effect on VGN survival, NT-4/5 combined with NT-3 ([4]; 10 ng/ml, FIG. 2): no synergistic effects were observed | survival-promoting effect on VGNs over the dose range ([4]; NT-4/5 at different concentrations, 2 days, FIG. 1): dose-dependent; also recorded: very significant survival-promoting effects | concentration of maximal survival-promoting effect ([4]; doses from 0.1 to 50 ng/ml examined, FIG. 1): 10 ng/mL
